# Reference: IntAct's records for PubMed 24449766
# B1: E3 ubiquitin-protein ligase MARCHF6 (Homo sapiens), O60337 (parent)
# chain: MDTAEEDICRVCRSEGTPEKPLYHPCVCTGSIKFIHQECLVQWLKHSRKEYCELCKHRFAFTPIYSPDMPSRLPIQDIFAGLVTSIGTAIRYWFHYTLVAFAWLGVVPLTACRIYKCLFTGSVSSLLTLPLDMLSTENLLADCLQGCFVVTCTLCAFISLVWLREQIVHGGAPIWLEHAAPPFNAAGHHQNEAPAGGNGAENVAADQPANPPAENAVVGENPDAQDDQAEEEEEDNEEEDDAGVEDAADANNGAQDDMNWNALEWDRAAEELTWERMLGLDGSLVFLEHVFWVVSLNTLFILVFAFCPYHIGHFSLVGLGFEEHVQASHFEGLITTIVGYILLAITLIICHGLATLVKFHRSRRLLGVCYIVVKVSLLVVVEIGVFPLICGWWLDICSLEMFDATLKDRELSFQSAPGTTMFLHWLVGMVYVFYFASFILLLREVLRPGVLWFLRNLNDPDFNPVQEMIHLPIYRHLRRFILSVIVFGSIVLLMLWLPIRIIKSVLPNFLPYNVMLYSDAPVSELSLELLLLQVVLPALLEQGHTRQWLKGLVRAWTVTAGYLLDLHSYLLGDQEENENSANQQVNNNQHARNNNAIPVVGEGLHAAHQAILQQGGPVGFQPYRRPLNFPLRIFLLIVFMCITLLIASLICLTLPVFAGRWLMSFWTGTAKIHELYTAACGLYVCWLTIRAVTVMVAWMPQGRRVIFQKVKEWSLMIMKTLIVAVLLAGVVPLLLGLLFELVIVAPLRVPLDQTPLFYPWQDWALGVLHAKIIAAITLMGPQWWLKTVIEQVYANGIRNIDLHYIVRKLAAPVISVLLLSLCVPYVIASGVVPLLGVTAEMQNLVHRRIYPFLLMVVVLMAILSFQVRQFKRLYEHIKNDKYLVGQRLVNYERKSGKQGSSPPPPQSSQE
# Variants of: B1
# Settings: with erg1_human SQLE
row,effect of a mutation on the interaction,Variant
1,increasing interaction,C9A
